Tested on: HEK293FT cells transfected with TF library
Experiment: Screening of TF condensates based on fluorescent puncta
Type: cell-based
Conditions: Figure 1B numerical data; TF library screen, one value per transcriptional factor
Summary of the method: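 HEK293FT cells were reverse-transfected with Flag- or GAL4-tagged TF plasmids (1.6 μg/ml, PEI). After 60 h, cells were cultured 12 h with or without glucose, then fixed and immunostained with anti-Flag or anti-GAL4 and Alexa 488 secondaries. Fluorescent puncta were imaged over fifty random fields per well by high-content imaging.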

Molecule | Z score of condensed fraction
JUP (protein, UniProt P14923 1-745, looked up) Junction plakoglobin: MEVMNLMEQPIKVTEWQQTYTYDSGIHSGANTCVPSVSSKGIMEEDEACGRQYTLKKTTTYTQGVPPSQGDLEYQMSTTARAKRVREAMCPGVSGEDSSLLLATQVEGQATNLQRLAEPSQLLKSAIVHLINYQDDAELATRALPELTKLLNDEDPVVVTKAAMIVNQLSKKEASRRALMGSPQLVAAVVRTMQNTSDLDTARCTTSILHNLSHHREGLLAIFKSGGIPALVRMLSSPVESVLFYAITTLHNLLLYQEGAKMAVRLADGLQKMVPLLNKNNPKFLAITTDCLQLLAYGNQESKLIILANGGPQALVQIMRNYSYEKLLWTTSRVLKVLSVCPSNKPAIVEAGGMQALGKHLTSNSPRLVQNCLWTLRNLSDVATKQEGLESVLKILVNQLSVDDVNVLTCATGTLSNLTCNNSKNKTLVTQNSGVEALIHAILRAGDKDDITEPAVCALRHLTSRHPEAEMAQNSVRLNYGIPAIVKLLNQPNQWPLVKATIGLIRNLALCPANHAPLQEAAVIPRLVQLLVKAHQDAQRHVAAGTQQPYTDGVRMEEIVEGCTGALHILARDPMNRMEIFRLNTIPLFVQLLYSSVENIQRVAAGVLCELAQDKEAADAIDAEGASAPLMELLHSRNEGTATYAAAVLFRISEDKNPDYRKRVSVELTNSLFKHDPAAWEAAQSMIPINEPYGDDMDATYRPMYSSDVPLDPLEMHMDMDGDYPIDTYSDGLRPPYPTADHMLA | -0.6246
ARRB1 (protein, UniProt P49407 1-418, looked up) Beta-arrestin-1: MGDKGTRVFKKASPNGKLTVYLGKRDFVDHIDLVDPVDGVVLVDPEYLKERRVYVTLTCAFRYGREDLDVLGLTFRKDLFVANVQSFPPAPEDKKPLTRLQERLIKKLGEHAYPFTFEIPPNLPCSVTLQPGPEDTGKACGVDYEVKAFCAENLEEKIHKRNSVRLVIRKVQYAPERPGPQPTAETTRQFLMSDKPLHLEASLDKEIYYHGEPISVNVHVTNNTNKTVKKIKISVRQYADICLFNTAQYKCPVAMEEADDTVAPSSTFCKVYTLTPFLANNREKRGLALDGKLKHEDTNLASSTLLREGANREILGIIVSYKVKVKLVVSRGGLLGDLASSDVAVELPFTLMHPKPKEEPPHREVPENETPVDTNLIELDTNDDDIVFEDFARQRLKGMKDDKEEEEDGTGSPQLNNR | 0.4258
KLRG1 (protein, UniProt Q96E93 1-195, looked up) Killer cell lectin-like …: MTDSVIYSMLELPTATQAQNDYGPQQKSSSSRPSCSCLVAIALGLLTAVLLSVLLYQWILCQGSNYSTCASCPSCPDRWMKYGNHCYYFSVEEKDWNSSLEFCLARDSHLLVITDNQEMSLLQVFLSEAFCWIGLRNNSGWRWEDGSPLNFSRISSNSFVQTCGAINKNGLQASSCEVPLHWVCKKCPFADQALF | 2.376
LASS3 (protein, UniProt Q8IU89 1-383, looked up) Ceramide synthase 3: MFWTFKEWFWLERFWLPPTIKWSDLEDHDGLVFVKPSHLYVTIPYAFLLLIIRRVFEKFVASPLAKSFGIKETVRKVTPNTVLENFFKHSTRQPLQTDIYGLAKKCNLTERQVERWFRSRRNQERPSRLKKFQEACWRFAFYLMITVAGIAFLYDKPWLYDLWEVWNGYPKQPLLPSQYWYYILEMSFYWSLLFRLGFDVKRKDFLAHIIHHLAAISLMSFSWCANYIRSGTLVMIVHDVADIWLESAKMFSYAGWTQTCNTLFFIFSTIFFISRLIVFPFWILYCTLILPMYHLEPFFSYIFLNLQLMILQVLHLYWGYYILKMLNRCIFMKSIQDVRSDDEDYEEEEEEEEEEATKGKEMDCLKNGLRAERHLIPNGQHGH | -1.783
LASS4 (protein, UniProt Q9HA82 1-394, looked up) Ceramide synthase 4: MLSSFNEWFWQDRFWLPPNVTWTELEDRDGRVYPHPQDLLAALPLALVLLAMRLAFERFIGLPLSRWLGVRDQTRRQVKPNATLEKHFLTEGHRPKEPQLSLLAAQCGLTLQQTQRWFRRRRNQDRPQLTKKFCEASWRFLFYLSSFVGGLSVLYHESWLWAPVMCWDRYPNQTLKPSLYWWYLLELGFYLSLLIRLPFDVKRKDFKEQVIHHFVAVILMTFSYSANLLRIGSLVLLLHDSSDYLLEACKMVNYMQYQQVCDALFLIFSFVFFYTRLVLFPTQILYTTYYESISNRGPFFGYYFFNGLLMLLQLLHVFWSCLILRMLYSFMKKGQMEKDIRSDVEESDSSEEAAAAQEPLQLKNGAAGGPRPAPTDGPRSRVAGRLTNRHTTAT | -0.3767
LASS6 (protein, UniProt Q6ZMG9 1-384, looked up) Ceramide synthase 6: MAGILAWFWNERFWLPHNVTWADLKNTEEATFPQAEDLYLAFPLAFCIFMVRLIFERFVAKPCAIALNIQANGPQIAPPNAILEKVFTAITKHPDEKRLEGLSKQLDWDVRSIQRWFRQRRNQEKPSTLTRFCESMWRFSFYLYVFTYGVRFLKKTPWLWNTRHCWYNYPYQPLTTDLHYYYILELSFYWSLMFSQFTDIKRKDFGIMFLHHLVSIFLITFSYVNNMARVGTLVLCLHDSADALLEAAKMANYAKFQKMCDLLFVMFAVVFITTRLGIFPLWVLNTTLFESWEIVGPYPSWWVFNLLLLLVQGLNCFWSYLIVKIACKAVSRGKVSKDDRSDIESSSDEEDSEPPGKNPHTATTTNGTSGTNGYLLTGSCSMDD | -0.6196
LBX2 (protein, UniProt Q9WUN8 1-195, looked up) Transcription factor LBX2: MNSVHQRRTPFSIADILGPSMVPEAPSAPQLPEAGPDPASPLCALEELASKTFLGHSPRATPQPSEGRAAPEAPPGPGAGVRRRRKSRTAFTAQQVLELERRFVFQKYLAPSERDGLAARLGLANAQVVTWFQNRRAKLKRDVEEMRADVASLCGLSPGVLCYPALPDSTSSPDPGPSGPDSEPNLSDEEIQVDD | -0.9162
LEF1 (protein, UniProt Q9UJU2 1-399, looked up) Lymphoid enhancer-binding …: MPQLSGGGGGGGGDPELCATDEMIPFKDEGDPQKEKIFAEISHPEEEGDLADIKSSLVNESEIIPASNGHEVARQAQTSQEPYHDKAREHPDDGKHPDGGLYNKGPSYSSYSGYIMMPNMNNDPYMSNGSLSPPIPRTSNKVPVVQPSHAVHPLTPLITYSDEHFSPGSHPSHIPSDVNSKQGMSRHPPAPDIPTFYPLSPGGVGQITPPLGWQGQPVYPITGGFRQPYPSSLSVDTSMSRFSHHMIPGPPGPHTTGIPHPAIVTPQVKQEHPHTDSDLMHVKPQHEQRKEQEPKRPHIKKPLNAFMLYMKEMRANVVAECTLKESAAINQILGRRWHALSREEQAKYYELARKERQLHMQLYPGWSARDNYGKKKKRKREKLQESASGTGPRMTAAYI | 0.2503
LHX2 (protein, UniProt P50458 1-406, looked up) LIM/homeobox protein Lhx2: MLFHSLSGPEVHGVIDEMDRRAKSEAPAISSAIDRGDTETTMPSISSDRAALCAGCGGKISDRYYLLAVDKQWHMRCLKCCECKLNLESELTCFSKDGSIYCKEDYYRRFSVQRCARCHLGISASEMVMRARDLVYHLNCFTCTTCNKMLTTGDHFGMKDSLVYCRLHFEALLQGEYPAHFNHADVAAAAAAAAAAKSAGLGAAGANPLGLPYYNGVGTVQKGRPRKRKSPGPGADLAAYNAALSCNENDAEHLDRDQPYPSSQKTKRMRTSFKHHQLRTMKSYFAINHNPDAKDLKQLAQKTGLTKRVLQVWFQNARAKFRRNLLRQENTGVDKSTDAALQTGTPSGPASELSNASLSPSSTPTTLTDLTSPTLPTVTSVLTSVPGNLEGHEPHSPSQTTLTNLF | 0.8007
LHX3 (protein, UniProt Q9UBR4 1-397, looked up) LIM/homeobox protein Lhx3: MLLETGLERDRARPGAAAVCTLGGTREIPLCAGCDQHILDRFILKALDRHWHSKCLKCSDCHTPLAERCFSRGESVYCKDDFFKRFGTKCAACQLGIPPTQVVRRAQDFVYHLHCFACVVCKRQLATGDEFYLMEDSRLVCKADYETAKQREAEATAKRPRTTITAKQLETLKSAYNTSPKPARHVREQLSSETGLDMRVVQVWFQNRRAKEKRLKKDAGRQRWGQYFRNMKRSRGGSKSDKDSVQEGQDSDAEVSFPDEPSLAEMGPANGLYGSLGEPTQALGRPSGALGNFSLEHGGLAGPEQYRELRPGSPYGVPPSPAAPQSLPGPQPLLSSLVYPDTSLGLVPSGAPGGPPPMRVLAGNGPSSDLSTGSSGGYPDFPASPASWLDEVDHAQF | -0.2379
LIN28 (protein, UniProt Q9H9Z2 2-209, looked up) Protein lin-28 homolog A: GSVSNQQFAGGCAKAAEEAPEEAPEDAARAADEPQLLHGAGICKWFNVRMGFGFLSMTARAGVALDPPVDVFVHQSKLHMEGFRSLKEGEAVEFTFKKSAKGLESIRVTGPGGVFCIGSERRPKGKSMQKRRSKGDRCYNCGGLDHHAKECKLPPQPKKCHFCQSISHMVASCPLKAQQGPSAQGKPTYFREEEEEIHSPTLLPEAQN | -0.1683
LIN28B (protein, UniProt Q6ZN17 1-250, looked up) Protein lin-28 homolog B: MAEGGASKGGGEEPGKLPEPAEEESQVLRGTGHCKWFNVRMGFGFISMINREGSPLDIPVDVFVHQSKLFMEGFRSLKEGEPVEFTFKKSSKGLESIRVTGPGGSPCLGSERRPKGKTLQKRKPKGDRCYNCGGLDHHAKECSLPPQPKKCHYCQSIMHMVANCPHKNVAQPPASSQGRQEAESQPCTSTLPREVGGGHGCTSPPFPQEARAEISERSGRSPQEASSTKSSIAPEEQSKKGPSVQKRKKT | -0.9223
LITAF (protein, UniProt Q99732 1-161, looked up) Lipopolysaccharide-induced …: MSVPGPYQAATGPSSAPSAPPSYEETVAVNSYYPTPPAPMPGPTTGLVTGPDGKGMNPPSYYTQPAPIPNNNPITVQTVYVQHPITFLDRPIQMCCPSCNKMIVSQLSYNAGALTWLSCGSLCLLGCIAGCCFIPFCVDALQDVDHYCPNCRALLGTYKRL | 0.004705
LMCD1 (protein, UniProt Q9NZU5 1-365, looked up) LIM and cysteine-rich domains …: MAKVAKDLNPGVKKMSLGQLQSARGVACLGCKGTCSGFEPHSWRKICKSCKCSQEDHCLTSDLEDDRKIGRLLMDSKYSTLTARVKGGDGIRIYKRNRMIMTNPIATGKDPTFDTITYEWAPPGVTQKLGLQYMELIPKEKQPVTGTEGAFYRRRQLMHQLPIYDQDPSRCRGLLENELKLMEEFVKQYKSEALGVGEVALPGQGGLPKEEGKQQEKPEGAETTAATTNGSLSDPSKEVEYVCELCKGAAPPDSPVVYSDRAGYNKQWHPTCFVCAKCSEPLVDLIYFWKDGAPWCGRHYCESLRPRCSGCDEIIFAEDYQRVEDLAWHRKHFVCEGCEQLLSGRAYIVTKGQLLCPTCSKSKRS | 2.397
LMO1 (protein, UniProt P25800 1-156, looked up) Rhombotin-1: MMVLDKEDGVPMLSVQPKGKQKGCAGCNRKIKDRYLLKALDKYWHEDCLKCACCDCRLGEVGSTLYTKANLILCRRDYLRLFGTTGNCAACSKLIPAFEMVMRARDNVYHLDCFACQLCNQRFCVGDKFFLKNNMILCQMDYEEGQLNGTFESQVQ | 0.976

Source: article PMC11574045, “A cofactor-induced repressive type of transcription factor condensation can be induced by synthetic peptides to suppress tumorigenesis” (The EMBO Journal, 2024)
